In US20050037969A1 (ARBOR VITA, published 2005):
Ends that are not written are not given here. * marks the point of attachment. Biotin = O=C1N[C@H]2[C@H](CS[C@H]2CCCCC(=O)*)N1

Experiments:
Assay in all cases: A/G assays
[1] = target: T1, NSP PDZ-GST fusion protein (Homo sapiens (Human), UniProt Q92743 370-466)
T1 construct: The label NSP is not explained in the excerpts

[2] = target: T2, GST-TAX-IP40 PDZ domain fusion protein (human, UniProt Q6B4M5 150-252 (rat entry))
T2 construct: also called TAX40; not shown: glutathione S-transferase encoded by vector pGEX-3X (Pharmacia)
T2 sequence: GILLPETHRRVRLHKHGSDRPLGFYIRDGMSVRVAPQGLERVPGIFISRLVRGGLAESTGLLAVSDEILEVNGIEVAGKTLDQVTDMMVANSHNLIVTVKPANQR

[3] = target: T3, GST-PTN-4 PDZ domain fusion protein (Homo sapiens (Human), UniProt P29074 517-605)
T3 construct: also called protein-tyrosine phosphatase meg1; not shown: glutathione S-transferase encoded by vector pGEX-3X (Pharmacia)
T3 sequence: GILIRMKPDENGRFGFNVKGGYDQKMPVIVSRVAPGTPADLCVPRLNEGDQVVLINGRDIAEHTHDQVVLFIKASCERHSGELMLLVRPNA

[4] = target: T4, NOS1 PDZ-GST fusion protein (Homo sapiens (Human), UniProt P29475 11-100)
T4 construct: Order of GST and PDZ part and limits not seen in the excerpts

[5] = target: T5, MINT3 PDZ-GST fusion protein
T5 construct: Order of GST and PDZ part and limits not seen in the excerpts
T5 chain: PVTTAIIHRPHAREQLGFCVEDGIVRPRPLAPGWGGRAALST

[6] = target: T6, GST-CASK PDZ domain fusion protein (Homo sapiens, UniProt O14936 486-575)
T6 construct: also called Homo sapiens CASK protein
T6 sequence: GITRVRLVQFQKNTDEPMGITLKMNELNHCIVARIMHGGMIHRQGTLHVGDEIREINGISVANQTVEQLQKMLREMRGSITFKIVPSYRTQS

[7] = target: T7, GST-RGS12 PDZ domain fusion protein (human, UniProt O14924 17-85)
T7 construct: also called human regulator of G-protein signalling 12; not shown: glutathione S-transferase encoded by vector pGEX-3X (Pharmacia)
T7 sequence: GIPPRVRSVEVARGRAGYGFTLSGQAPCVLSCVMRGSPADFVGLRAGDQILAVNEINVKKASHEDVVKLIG

[8] = target: T8, K559 PDZ-GST fusion protein (Homo sapiens (Human), UniProt Q9Y6V0 4489-4593)
T8 construct: Order of GST and PDZ part and limits not seen in the excerpts
T8 sequence: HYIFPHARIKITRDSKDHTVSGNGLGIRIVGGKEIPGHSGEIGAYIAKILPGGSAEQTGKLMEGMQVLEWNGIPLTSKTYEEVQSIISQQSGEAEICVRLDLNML

[9] = target: T9, GST-PDZK1 fusion protein (PDZ domains 2-4) (Homo sapiens, UniProt Q5T2W1 134-457)
T9 construct: not shown: glutathione S-transferase encoded by vector pGEX-3X (Pharmacia)
T9 sequence: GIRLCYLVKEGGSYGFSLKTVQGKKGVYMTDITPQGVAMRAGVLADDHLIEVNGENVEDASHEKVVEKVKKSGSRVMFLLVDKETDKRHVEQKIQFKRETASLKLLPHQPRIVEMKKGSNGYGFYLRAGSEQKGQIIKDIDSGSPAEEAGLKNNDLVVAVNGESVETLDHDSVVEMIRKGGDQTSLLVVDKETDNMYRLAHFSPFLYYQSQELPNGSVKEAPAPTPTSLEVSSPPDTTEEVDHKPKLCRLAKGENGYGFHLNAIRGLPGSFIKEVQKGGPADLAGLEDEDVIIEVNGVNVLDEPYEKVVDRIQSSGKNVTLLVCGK

[10] = target: T10, X11β PDZ-GST fusion protein (Rattus norvegicus (Rat), UniProt O35431 560-745)
T10 construct: Order of GST and PDZ part and limits not seen in the excerpts
T10 chain: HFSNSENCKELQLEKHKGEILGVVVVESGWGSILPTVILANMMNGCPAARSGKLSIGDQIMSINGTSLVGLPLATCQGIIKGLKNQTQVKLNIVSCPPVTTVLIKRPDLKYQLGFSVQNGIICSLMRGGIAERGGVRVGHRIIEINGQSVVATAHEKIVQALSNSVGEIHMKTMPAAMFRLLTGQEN

[11] = target: T11, GST-mouse syntenin fusion protein (Mus musculus, UniProt O08992 108-286)
T11 construct: also called Mus musculus Syntenin; not shown: glutathione S-transferase encoded by vector pGEX-3X (Pharmacia)
T11 chain: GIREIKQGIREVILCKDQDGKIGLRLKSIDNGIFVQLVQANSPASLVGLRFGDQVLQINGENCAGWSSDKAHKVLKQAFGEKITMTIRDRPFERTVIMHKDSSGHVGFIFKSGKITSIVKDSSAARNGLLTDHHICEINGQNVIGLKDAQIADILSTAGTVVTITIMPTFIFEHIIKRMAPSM

[12] = target: T12, GST-MPP1 PDZ domain fusion protein (Homo sapiens (Human), UniProt Q00013 67-152)
T12 construct: also called p55; 55 Kd erythrocyte membrane protein; not shown: glutathione S-transferase encoded by vector pGEX-3X (Pharmacia)
T12 sequence: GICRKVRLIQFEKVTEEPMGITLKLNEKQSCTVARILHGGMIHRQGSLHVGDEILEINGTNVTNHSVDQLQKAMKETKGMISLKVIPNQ

[13] = target: T13, GST-LIM protein PDZ domain fusion protein (Human, UniProt Q96HC4 2-85)
T13 construct: also called Human LIM protein; not shown: glutathione S-transferase encoded by vector pGEX-3X (Pharmacia)
T13 sequence: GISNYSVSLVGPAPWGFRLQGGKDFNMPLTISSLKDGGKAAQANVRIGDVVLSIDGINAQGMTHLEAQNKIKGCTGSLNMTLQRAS

[14] = target: T14, GST-cytohesin binding protein PDZ domain fusion protein (Homo sapiens (Human), UniProt O60759 74-165)
T14 construct: also called CBP; not shown: glutathione S-transferase encoded by vector pGEX-3X (Pharmacia)
T14 sequence: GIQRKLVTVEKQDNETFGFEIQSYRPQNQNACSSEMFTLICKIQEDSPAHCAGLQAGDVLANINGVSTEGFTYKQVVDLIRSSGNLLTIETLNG

[15] = target: T15, KIAA0807 (PDZ domain)-GST fusion protein (human, UniProt Q6P0Q8 1104-1192)
T15 construct: also called K807; KIAA807; not shown: glutathione S-transferase encoded by vector pGEX-3X (Pharmacia)
T15 sequence: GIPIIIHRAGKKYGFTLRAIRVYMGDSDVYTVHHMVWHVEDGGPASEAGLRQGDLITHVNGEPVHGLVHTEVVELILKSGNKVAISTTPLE

Measured: binding result

T1 sequence (Q92743 other isoform, or with tags, fused parts or gaps limits assumed): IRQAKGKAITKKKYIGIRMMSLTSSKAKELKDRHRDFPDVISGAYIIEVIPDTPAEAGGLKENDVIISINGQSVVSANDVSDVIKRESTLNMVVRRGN
T4 sequence (P29475 11-100 limits assumed): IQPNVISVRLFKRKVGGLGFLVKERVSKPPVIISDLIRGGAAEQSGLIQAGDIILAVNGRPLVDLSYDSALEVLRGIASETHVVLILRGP

Biotin-QATSENGHSARQHVVADTEL [CD34 C-terminal peptide AA7L, biotinylated]
not listed: [15]
no binding: all other assays above

B1: PAG C-terminal peptide AA58L, biotinylated (peptide)
peptide: Biotin-KENDYESISDLQQGRDITRL
notes: also called Phosphoprotein Associated with GEMs
not listed: [15]
no binding: all other assays above

Biotin-KKGTYLTDETHREVKFTSL [CD46 (Form 1) C-terminal peptide AA10L, biotinylated]
not listed: [15]
no binding: all other assays above

Biotin-QGDPALQDAGDSSRKEYFI (also called GC) [Glycophorin C C-terminal peptide AA37L, biotinylated]
not listed: [12]
no binding: all other assays above

Biotin-TREDIYVNYPTFSRRPKTRV [DNAM-1 C-terminal peptide AA22L, biotinylated]
not listed: [4] | [7] | [12] | [13]
no binding: all other assays above

Biotin-LASKSAEEGKQIPDSLSTDL [DOCK2 C-terminal peptide AA40L, biotinylated]
not listed: [15]
no binding: all other assays above

Biotin-QFMTADETRNLQNVDMKIGV (also called CD44 (long form)) [CD44 C-terminal peptide AA9L, biotinylated]
not listed: [11] | [12]
no binding: all other assays above
